The values below come from US20130225478A1 (YEDA RESEARCH AND DEVELOPMENT, published 2013).

In data set [1] the target is T1, mTLR1 TM N′ (mouse, N-terminal fluorescein (FRET donor) or N-terminal rhodamine (TAMRA) label, depending on the assay; synthesized on Rink amide MBHA resin).
T1 construct: Synthetic peptide; Tested in PC:Cholesterol LUVs or HEPES buffer; also called mTLR1 N′ TM; TLR1 TM N-terminus peptide
T1 peptide: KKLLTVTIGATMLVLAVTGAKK
Briefly: FRET in PC:Cholesterol LUVs, fluorescein-mTLR1 TM N′ donor, rhodamine-Cp acceptor (FIG. 3A). The text has this:
FIGS. 3A-3C show FRET between mTLR1 TM N′ (SEQ ID NO:77) and other TM peptides. mTLR1 TM N′ peptide labeled with fluorescein (donor) and loaded on PC:Cholesterol LUVs. Changes in the intensity of the emission signal were monitored between 500 to 600 nm, upon the addition of successive amounts of rhodamine labeled mTLR1 TM N′ (SEQ ID NO:77; homodimers, 3B) and mTLR2 TM N′-CtoA (SEQ ID NO:88; heterodimers, 3C). Rhodamine labeled TCRα TM domain peptide (Cp; […]-NH2, SEQ ID NO:123) was used as a negative control (3A).
(§1) Large unilamellar vesicles (LUVs) composed of phosphatidylcholine (PC) and cholesterol (10:1, w/w), were prepared using the extrusion method as described previously (Cohen et al, 2008). The fluorescence experiments were performed with pairs of peptides using fluorescein labeled peptides as donors and rhodamine labeled peptides as acceptors. Fluorescence spectra were obtained at room temperature, with excitation set at 494 nm (10 nm slit) and emission scan at 500-600 nm (10 nm slits), by a Cary eclipse fluorescence spectrophotometer (Varian Inc., Palo Alto, Calif.). […] Fluorescence spectra were obtained before and after the addition of the rhodamine labeled peptides. Fluorescence values were corrected by subtracting the changes in emission obtained by adding HEPES only. […]

In data set [2] the target is T2, mTLR1 TM C′-CtoA (mouse, N-terminal fluorescein (FRET donor) or N-terminal rhodamine (TAMRA) label, depending on the assay; synthesized on Rink amide MBHA resin).
T2 construct: Synthetic peptide; Tested in PC:Cholesterol LUVs or HEPES buffer; also called mTLR1 C′ TM (C to A); TLR1 TM C-terminus peptide
T2 peptide: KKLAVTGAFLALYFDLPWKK
Kind of data set: FRET in PC:Cholesterol LUVs, fluorescein-mTLR1 TM C′-CtoA donor, rhodamine-Cp acceptor (FIG. 2A).
Excerpt: FIGS. 2A-2C show fluorescence resonance energy transfer (FRET) between mTLR1 TM C′-CtoA (SEQ ID NO:83) and other TM peptides. mTLR1 TM C′ peptide was labeled with fluorescein (Donor) and loaded on PC:Cholesterol large unilamellar vesicles (LUVs). Changes in the intensity of the emission signal were monitored between 500 to 600 nm, upon the addition of successive amounts of rhodamine labeled mTLR1 TM C′-CtoA (SEQ ID NO:83; homodimers, 2B) and mTLR2 TM C′-CtoA (SEQ ID NO:86; heterodimers, 2C). Rhodamine labeled TCRα TM domain peptide (Cp; […]-NH2, SEQ ID NO:123) was used as a negative control (2A).
as §1

Data set [3] deals with the molecule itself. Kind of data set: self-assembly assay, rhodamine dequenching after proteinase K, PC:Cholesterol LUVs (FIG. 7D). The procedure:
(7A-7B) Rhodamine conjugated TLR peptides mTLR2 TM N′-CtoA (SEQ ID NO:88), mTLR2 TM C′-CtoA (SEQ ID NO:86), mTLR1 TM N′ (SEQ ID NO:77) and mTLR1 TM C′-CtoA (SEQ ID NO:83), were added to HEPES solution and their emission at 585 nm was recorded before and after the addition of proteinase K. The addition of the proteinase K is indicated by a black arrow. mTLR1 TM C′-CtoA (SEQ ID NO:83), mTLR1 TM N′ (SEQ ID NO:77) and mTLR2 TM C′-CtoA (SEQ ID NO:86) are capable to self assemble in solution, to a very slight extent (7A). mTLR2 TM N′-CtoA (SEQ ID NO:88) highly oligomerise in solution (black line, 7B) and is partially dissociated in the presence of LUVs (gray line, 7B). […] LL37 is shown as an example for a peptide that is highly oligomerised in liposomes (7D).
We have tested this characteristic, both in solution and on a membrane interface. We measured the initial emission of rhodamine labeled peptides at 580 nm in solution only, or in a solution containing PC:Cholesterol LUVs, and then followed the increase of the emission over time after the addition of protease-K to the medium. […] The known oligomeric antimicrobial peptide LL37 (Rosenfeld et al., 2006a) was used as a positive control.

Ends that are not written are not given here.

B1: Cp, the core TM peptide of TCRα (peptide)
peptide: GLRILLLKV-NH2
modifications: also: rhodamine label
notes: Negative control in the FRET experiments; also called TCRα TM domain peptide
B1: the binding result in data set [1] and in data set [2] was “no binding” throughout.

B2: LL37 (peptide, UniProt P49913 134-170, looked up)
peptide: LLGDFFRKSKEKIGKEFKRIVQRIKDFLRNLVPRTES
modifications: also: rhodamine label
notes: Positive control of the self-assembly assay; LL-37 is the C-terminal 37 residues of the cathelicidin precursor; also called oligomeric antimicrobial peptide LL37
As to B2, the binding result in data set [3] was “binds”.
